Results as given in the DeepSol protein solubility set.

Assay: soluble on expression in E. coli; label from the status in PepcDB or PDB records

| Sequence | soluble on expression in E. coli |
| --- | --- |
| MSDNDELQQIAHLRREYTKGGLRRRDLPADPLTLFERWLSQACEAKLADPTAMVVATVDEHGQPYQRIVLLKHYDEKGMVFYTNLGSRKAHQIENNPRVSLLFPWHTLERQVMVIGKAERLSTLEVMKYFHSRPRDSQIGAWVSKQSSRISARGILESKFLELKQKFQQGEVPLPSFWGGFRVSLEQIEFWQGGEHRLHDRFLYQRENDAWKIDRLAP | soluble |
| MSDNNQALKDAGLKVTLPRLKILEVLQQPECQHISAEELYKKLIDLGEEIGLATVYRVLNQFDDAGIVTRHHFEGGKSVFELSTQHHHDHLVCLDCGEVIEFSDDVIEQRQKEIAAKYNVQLTNHSLYLYGKCGSDGSCKDNPNAHKPKK | soluble |
| MSDPAGNRPKTEKELKKEAEKAAKLAKFEEKQKKLAEKKAAASDKPVKEAKAKKEQTVEAAEPVDQTPTGQRKKIDGEIPAAYFPGYVESGWYSWWEKEGFFKPEYIDKLNPGSNPADSFTVCIPPPNVTGNLHVGHALATTVEDTITRFNRMHGKRTLFNPGCDHAGIATQVVVEKRLKRERGLTRHDLGRDRFNQEVWHWKNEKGDVIYDQFRKLGASVDWDRAVFTMDPKMCRAVTEAFIRMHESGTIYRSNRLVNWSCALRSAISDIEVDKKELTGSTLIAVPGYDKKIEFGVLNSFAYKIQGSDEEIVVSTTRIETMLGDSGVAVHPDDQRYKHLVGKQCIHPFIPTRNLPIFADSFVEMEFGTGAVKITPAHDHNDYEVGIRQNLPFHNCITDDGLISQGCGEFSGMKRFDARTAVIEALKEKGLYRGKEDNPMVVPTCSRSKDVIEPILKPQWYVKCAHMAEKAVAAVANGDLQIIPEFHKATWNRWLESSRDWCISRQLWWGHRIPAYYISFADGREQPLPEENYWVSARTEQEALAKAAQKFQVPEAEILLKWDEDVLDTWFSSGMWPFAVFGWPDATKDMDLFFPGAVLETGHDILFFWVARMVFMAQELTGKLPFKEILLHAMIRDAHGRKMSKSLGNVIDPLDVIRGISLNDLQAQLLGGNLDEKEIAVAKEGQARDYPDGIPECGVDALRFALLSYTSQGRDINLDVLRVHGYRKFCNKLWQVVRFALARISDKPEQKPTFEINLKSATPTDLWILSRLAKAVKETNEALKAYNFTQATTVTYNFWLYDFCDVYVETIKPVLYGDNTTLRQVAISVLHKCIDTGLRLISPLMPFISEELWQRMPRLDDSDYTSPSIIVAQYPLTQKYEKYQNEKLEAAFEFAQELIGKVRSLRADYDLKKTKITMQILSETPEDESMLNDISAVITTLTFSEKVSILNKCESDKIEKGSAHIACGGRCQVYINLTGIIDVPKEIEKLGAKLQKNQISVKKIGDIQSSADYEQKVPVDIRALDQEKKATLEKEIENITAAIAQLKALN | not soluble |
| MSDPAIAVLPYGMKLGPALSGLPLDQVNWPLGCPERLVGKTLGDLGAGDHLLVYPRTGTHFQLSRGTRARISLIMAEPAVIHAKHYALLRVTWRRFHRVLTFNQAAVDRLPNARLLLFGSTWVPEWQSLTPEKVAQCSLIASAKRDSTGHKLRHAVVDWVRASDQDVAVLGRGYQPFDSKADGLAPYRYSVVIENVQERNYFSEKLLDAVFCETVPIYWGCPNIADFVDTTAMILCTREEDIRRAVAEMSAEDYAARLPALRALKQQLAPYAAHEARAARMILDELLEHHHHHH | soluble |
| MSDQEDKEVPDVEVDYSKYDEDSVPIPEKDIEESHPGRPDLDYDETPVGPAPTECTEEKND | not soluble |
| MSDQPIVLTSFYPKEGGARDKILLDGKNFGTDVSKIKVYFNNARASVVSSSGSRIYAIVPRLPGDNPRISVVVDTDSVAYEETYAYHTQALVSTVTGNGETSFLAGTLSTAQVYGKYLDLDAEGNLFMSWRDGGTFGIARINEQQNIVTPLIEADAANRILYANGLTVDRATGMLTAAHESVKEVTFTFDPREAWYPRQRNIKYSQSDLNSIVDADRYKNFVTFCPYDGYLYTRYRDGKIAKIDPNTFEGHIIHQGPSGSQYGQAINPAKPWLLYITLHSNAPTAYRQGISVLDLRDPDGTGGFKRLNAPGGSAFRDGPIEDALFNYPKDIKFDNDGNMFVADYGNHCIRMISADNIVTTVAGQPGVAGYKDGGPVESLFKNPWGVAVNEQGDIYIADWGNARIRKLVIELEHHHHHH | soluble |
| MSDRHFDELATRFAEKIYGGAKGAIRLAVLQADLAEALPERPLRVLDIGAGLGHMSLWLAARGHRVTLAEPAQPMLDGARQRFAEAGQAAEFIQAPWQELLGQLTEPYDLVLCHAVLEWLAEPHAILPVLHQLCAPGGWLSLAFYNRDALIYRNLLKGHFRKLRKERFAGEGQSLTPQRPLDPRELEQALAARWRIEARSGVRVFHDYMPSEFQAKAERLDLVEMELAYRRHPAFAGLGRYLHWLCRPQ | not soluble |
| MSDSKPRDVQVLPIATNTKVLRARSWSRLRFEIEYALERGTTSNSYVIEGDKTAIIDPPVESFMKIYLEALQQTVNLKKLDYVILGHFSPNRIPTFKALLELAPQITFVCSLPAAGDLRAAFPDDNLNILPMRGKETLDLGKGHVLKFLPIPSPRWPAGLCTYDVQTQILYTDKIFGAHICGDDVFDDNWESFKEDQRYYFNCLMAPHAIHVEAALEKISDLQVRLYAVGHGPLVRTSLIALTQAYADWSKAQKDREISVALLYASAYGNTATIARAIALGLTKGGVAVKSINCEFATPEEIQTNLEQVDGFLIGSPTIGGHAPTPINTALGIVLKVGDNNKLAGVFGSYGWSGEALDMIEGKLRDAGYRFGLDTLKVKFKPDDVTLKFCEEVGTDFAQTLKKAKKVRVPQQAATPVEQAVGRIVGSVCVITAKQGDVSTGMLGSWVSQATFNPPGLTVAIAKERAIESLMYPGGKFALNILSEGNHLEYMKHFRKNFAPGEDRFANFTTTEADNGCTVLADALAYVECSVDQRLECGDHWVVYATVDNGKLLKPDDVTAINHRKTGNHY | soluble |
| MSDSWTERWNDRYSNEIFAYGEKPNNYLKAQLENLQPGTILFAAEGEGRNAVFAACLGWDVQAFDISSEGKKKAFQLAEKNQVTIAYQVGQLETLGYTAGQFDALALIYAHFPATVKSAYHRILSSYVRSGGYIIFEAFSKKHLDYLAKNEQVGGPKEFDMLFSIEEIKADFPDYEILELEEKEIELNEGQFHNGTGSVIRFTGRKKLEHHHHHH | not soluble |
| MSDTDYYRELEASEQRLSDSRAANRESIRTVEDKISDEREKHVARMSEKEKKHHENMLRLTNSSAAERKSAEEAHRKSVEQLKEKHKNETEKLETQIKEIKEKGEEDVRKVELQRANLEKQRTEALDIHLETMKELNEKKFEEIRQQRKEQNILNVEEMKALSTRNAIEHETQMGLIDDTQNMILSRESRQSSLTLIGHMMKSIESGDAISSLLQEMKTYCENRDQYSPTDIKIMKNISADIGKHRAKCDFQRQQLISKINLESNADPQVVDGCFEMSMKMKCCVESSDLRSVCTTLPLLAAQQEHARISGIINKIGSLTDNLDAINVEIKTKSIQWSRRITNALTNTTGN | not soluble |
| MSDVAEEKAEFLVIRTYGSESFRKECADLIEKELHKLNATIARVPVGEFVAYAENAVKNETDSEAVGSSSVKRENSANDSPANTNDVDIVSSPVKRGRGRKAKNPSADADVNDTGSSPVKKGRGRPIKNPSADAGSPLVKKGRGRRAQTPAADTDAIDTASSPVKKGRGRPAKNPSADAGSPLVKKGRGRQAKNLAADTDAIDTASSPVKKGRGRPLKKTAAEADVNGLGSPSANRITGCPPSTKVSNQSSPPEPAVNESEEADEPVLKRGRSVKQPKDESESDDEDAEKAPAAIPKKRGRPGKSAIDAFFDGSD | soluble |
| MSEDLMDLSPEEGIERFLRHREPSVRESTMRNAKTRLRFFNEWCEERDIENLNNLTGRDLADFVAWRRGDIAALTLQKQLSTIREALRYWADIEGVDDGLAEKVHAPELEHHHHHH | not soluble |
